Tested on: Bacillus subtilis
Experiment: cleaved RNA product abundance (RNA/gDNA barcode ratio) relative to median wild-type variant (ratio to wild type); higher = more accumulation of the downstream cleavage product
Outline: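 Truncated aprE or tetM reporter mRNAs with barcoded RNase Y cleavage-site windows, mutagenized from oligos at a 9% error rate, sat in the B. subtilis chromosome. Cells grew in LB at 37°C from OD600 0.0003 to 0.3. Gel-selected cleaved RNA was reverse transcribed and its barcodes sequenced with those from genomic DNA, collapsing by UMI. Cleaved product abundance equals the RNA:gDNA barcode ratio per construct over the median construct with the unmutated site.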

[1] = experiment (reporter, strain, medium): exp 8a: truncated aprE reporter, strain BJT201 with 2% xylose (RNase J1 expressed), cleavage site: glnRA (positions -5 to +31 mutated)
[2] = experiment (reporter, strain, medium): exp 4a: truncated aprE reporter, strain BJT201 with 2% xylose (RNase J1 expressed), cleavage site: cggR-gapA (positions -7 to +36 mutated)
[3] = experiment (reporter, strain, medium): exp 2b: truncated aprE reporter, strain BJT200, cleavage site: cggR-gapA (positions -7 to +36 mutated)

Sequence: CGACATGTCCCGCTTCTTTCATTAATCCGTTAGCAACTGTTTTGCTTTATACATTTAACTTTTAAGAGGAGGAAT
- cleaved RNA product abundance [1]: 0.346

Sequence: CGACATGTCCCGCTTCTTTCATTAATCCGTTAGCAACTGTTTTTCTATATTCATTTACCTTTTAAGAGGAGGAAT
- cleaved RNA product abundance [1]: 0.189

Sequence: CGACATGTCCCGCTTCTTTCATTAATCCGTTAATAACTGTTTTGCTATATACATTTACCTTTTAAGAGGAGGAAT
- cleaved RNA product abundance [1]: 0.262

Sequence: CGACATGTCCCGCTTCTTTCATTAATCCGTTATCAACTGTTTTGCTATATACATTAACCTTTTAAGAGGAGGAAT
- cleaved RNA product abundance [1]: 0.283

Sequence: CGACATGTCCCGCTTCTTTCATTAAACCCTTAGCAACTGTTTTGCTATATACATTTACCTTTTAAGAGGAGGAAT
- cleaved RNA product abundance [1]: 0.18

Sequence: ACAGACGAAGGAGCCGCACAGAAGTTATTAAGGGATGAATAATCACTCAATATAAATATCTCTCACTTATTTAAA
- cleaved RNA product abundance [2]: 0.125

Sequence: CGACATGTCCCGCTTCTTTCATTAATCCGTTACCAACTGTTGTGCTATATACATTTACCTTTTAAGAGGAGGAAT
- cleaved RNA product abundance [1]: 0.182

Sequence: CGACATGTCCCGCTTCTTTCATTATTCCGTTAGCAACTGTTTTGCTCTATACATTTACCTTTTAAGAGGAGGAAT
- cleaved RNA product abundance [1]: 0.354

Sequence: ACAGACGAAGGAGCCGCAAAGAACTTATTAAGGGATGAATAATTCATCAATATAAATATCTCTCACTTATTTAAA
- cleaved RNA product abundance [2]: 0.372

Sequence: ACAGACGAAGGAGCCGCAAAGAAGTTATTAAGGGATGAATAAACCCACAATATAAATATCTCTCACTTATTTAAA
- cleaved RNA product abundance [3]: 0.143
- cleaved RNA product abundance [2]: 0.0828

Sequence: ACAGACGAAGGAGCCGCAACGAAGTTAATAAGGGATGAATAATCCCTCAATATAAATATCTCTCACTTATTTAAA
- cleaved RNA product abundance [3]: 0.227

Sequence: CGACATGTCCCGCTTCTTTCATTAATCCGTTAACAACTGTTTTGCTATATACATTTAGCTTTTAAGAGGAGGAAT
- cleaved RNA product abundance [1]: 0.204

Sequence: ACAGACGAAGGAGCCGCAAAGAAGTTATTAAGCGATGAATAATTCCTCAATATAAATATCTCTCACTTATTTAAA
- cleaved RNA product abundance [3]: 0.0741
- cleaved RNA product abundance [2]: 0.096

Sequence: ACAGACGAAGGAGCCGCAAAGAAGTTATTAAGGGATGAATAATTCCTGAATATAAATATCTCTCACTTATTTAAA
- cleaved RNA product abundance [2]: 0.471

Sequence: ACAGACGAAGGAGCCGCAAAGAAGTTATTAAGGGATGAAAAATCCCTAAATATAAATATCTCTCACTTATTTAAA
- cleaved RNA product abundance [3]: 0.499
- cleaved RNA product abundance [2]: 0.445

Sequence: CGACATGTCCCGCTTCTTTCATTAATCCGTTAGCAACAGTTTTGATATATACATTTACCTTTTAAGAGGAGGAAT
- cleaved RNA product abundance [1]: 0.429

Sequence: CGACATGTCCCGCTTCTTTCATTAATCCTTTAGCAACTGTTTTGCTATATACATTTATCTTTTAAGAGGAGGAAT
- cleaved RNA product abundance [1]: 0.826

Sequence: ACAGACGAAGGAGCCGCAACGAATTTATTAAGGGATGAATAATCCCTCAATATAAATATCTCTCACTTATTTAAA
- cleaved RNA product abundance [3]: 0.738
- cleaved RNA product abundance [2]: 1.15

Sequence: ACAGACGAAGGAGCCGCAAAGAAGTTATTAAGGGATGAACAATCCCTCACTATAAATATCTCTCACTTATTTAAA
- cleaved RNA product abundance [2]: 0.331

Sequence: CGACATGTCCCGCTTCTTTCATTAATCCGTTATCAACTGTTTTGCTATATACAATTACCTTTTAAGAGGAGGAAT
- cleaved RNA product abundance [1]: 0.276

Sequence: ACAGACGAAGGAGCCGCAAAGAAGTTAATAAGGGATGAATAATCCCTCTATATAAATATCTCTCACTTATTTAAA
- cleaved RNA product abundance [2]: 0.39

Sequence: ACAGACGAAGGAGCCGCCAAGAAGTTATTAAAGGATGAATAATCCCTCAATATAAATATCTCTCACTTATTTAAA
- cleaved RNA product abundance [2]: 0.144

Sequence: ACAGACGAAGGAGCCGCAAAGAAGTTATTAAGGGAAGAATAATCCCTCAATATAAATTTCTCTCACTTATTTAAA
- cleaved RNA product abundance [3]: 0.471

Sequence: ACAGACGAAGGAGCCGCAAAGAAGTTAATAAGGGATGAATAATCCCACAATATAAATATCTCTCACTTATTTAAA
- cleaved RNA product abundance [3]: 0.17
- cleaved RNA product abundance [2]: 0.253

Sequence: ACAGACGAAGGAGCCGCAAAGAAGTTAATAAGGGATGAATAATCACTCAATATAAATATCTCTCACTTATTTAAA
- cleaved RNA product abundance [3]: 0.112
- cleaved RNA product abundance [2]: 0.109

Sequence: CGACATGTCCCGCTTCTTTCATTAATCCGTAAGCAACTGTTTTTCTATATACATTTACCTTTTAAGAGGAGGAAT
- cleaved RNA product abundance [1]: 0.508

Sequence: ACAGACGAAGGAGCCGCAAAGAAATTATTAACGGATGAATAATCCCTCAATATAAATATCTCTCACTTATTTAAA
- cleaved RNA product abundance [3]: 0.142
- cleaved RNA product abundance [2]: 0.168

Sequence: ACAGACGAAGGAGCCGCAAAGAAGTTATTAAGCGATGAATACTCCCTCAATATAAATATCTCTCACTTATTTAAA
- cleaved RNA product abundance [2]: 0.102

Sequence: ACAGACGAAGGAGCCGCAAAGAAATTATTAAGGGATGAATAATCCCTCAAGATAAATATCTCTCACTTATTTAAA
- cleaved RNA product abundance [3]: 0.188
- cleaved RNA product abundance [2]: 0.189

Sequence: CGACATGTCCCGCTTCTTTCATTAATCCGTTACCAACTGTTTTGCTATATACATTTACTTTTTAAGAGGAGGAAT
- cleaved RNA product abundance [1]: 0.208

Sequence: ACAGACGAAGGAGCCGCAAAGAAGTTATTAAGGGATGAAGAATCCTTCAATATAAATATCTCTCACTTATTTAAA
- cleaved RNA product abundance [3]: 0.265
- cleaved RNA product abundance [2]: 0.405

Sequence: ACAGACGAAGGAGCCGCAAAGAAGTTATTAAGAGATGAATAATCCCTCAATATAAAAATCTCTCACTTATTTAAA
- cleaved RNA product abundance [3]: 0.103
- cleaved RNA product abundance [2]: 0.181

Sequence: ACAGACGAAGGAGCCGCAAAGAACTTATTAAGGGATGAATAATCCCTTAATATAAATATCTCTCACTTATTTAAA
- cleaved RNA product abundance [2]: 0.369
- cleaved RNA product abundance (experiment (reporter, strain, medium): exp 6: tetM reporter, strain 168, cleavage site: cggR-gapA (positions -7 to +36 mutated)): 0.271

Sequence: ACAGACGAAGGAGCCGCAAAAAAGGTATTAAGGGATGAATAATCCCTCAATATAAATATCTCTCACTTATTTAAA
- cleaved RNA product abundance [3]: 1.78
- cleaved RNA product abundance [2]: 0.879

Sequence: ACAGACGAAGGAGCCGCAAAGAAGTTATTAAGGGATGAATATTGCCTCAATATAAATATCTCTCACTTATTTAAA
- cleaved RNA product abundance [2]: 0.107

Sequence: CGACATGTCCCGCTTCTTTCATTACTCCGTTATCAACTGTTTTGCTATATACATTTACCTTTTAAGAGGAGGAAT
- cleaved RNA product abundance [1]: 0.227

Sequence: ACAGACGAAGGAGCCGCAAAGAAGTCATTAAAGGATGAATAATCCCTCAATATAAATATCTCTCACTTATTTAAA
- cleaved RNA product abundance [2]: 0.158

Sequence: CGACATGTCCCGCTTCTTTCATTAATCCGTGAGCAACTGTTTTGCTATACACATTTACCTTTTAAGAGGAGGAAT
- cleaved RNA product abundance [1]: 0.0879

Sequence: ACAGACGAAGGAGCCGCAAAGAAGTTATTAAGGGATGAATAATTCCTCAATTTAAATATCTCTCACTTATTTAAA
- cleaved RNA product abundance [3]: 0.0889
- cleaved RNA product abundance [2]: 0.0634

Sequence: ACAGACGAAGGAGCCGCAAAGAAGATATTAAGGGATGAATAAACCCTCAATATAAATATCTCTCACTTATTTAAA
- cleaved RNA product abundance [2]: 0.574

Sequence: ACAGACGAAGGAGCCGCAAAGAAGTTATTAAGGGATGAATAATCCATCAAAATAAATATCTCTCACTTATTTAAA
- cleaved RNA product abundance [3]: 0.132
- cleaved RNA product abundance [2]: 0.221

Sequence: ACAGACGAAGGAGCCGCAAAGAAGTTATCAAGGCATGAATAATCCCTCAATATAAATATCTCTCACTTATTTAAA
- cleaved RNA product abundance [2]: 0.0787

Sequence: ACAGACGAAGGAGCCGCAAAGAAGTTATAAAGGGATGAATAATCCTTCAATATAAATATCTCTCACTTATTTAAA
- cleaved RNA product abundance [3]: 0.174
- cleaved RNA product abundance [2]: 0.283

Sequence: CGACATGTCCCGCTTCTTTCATTAATCCCTTAGCAACTGTTTGGCTATATACATTTACCTTTTAAGAGGAGGAAT
- cleaved RNA product abundance [1]: 0.204

Sequence: CGACATGTCCCGCTTCTTTCATTAATCCGTTAGCAACTGTTTTGCTATATACATATACCTTTTAAGAGGAGGAAT
- cleaved RNA product abundance [1]: 1.04

Sequence: ACAGACGAAGGAGCCGCAAAGATGTTATTAAGGGATGAATAATCCCTCAATATAAATACCTCTCACTTATTTAAA
- cleaved RNA product abundance [3]: 0.71

Sequence: CGACATGTCCCGCTTCTTTCATTAATCCGTTAGCATCTGTTTTGCTATATACCTTTACCTTTTAAGAGGAGGAAT
- cleaved RNA product abundance [1]: 0.152

Sequence: CGACATGTCCCGCTTCTTTCATTAATCCGTTAGCAACTGTTTTGCTACATACAATTACCTTTTAAGAGGAGGAAT
- cleaved RNA product abundance [1]: 0.348

Sequence: CGACATGTCCCGCTTCTTTCATTAATCTGTTAGCAACTGTTTTGCTATATACAATTACCTTTTAAGAGGAGGAAT
- cleaved RNA product abundance [1]: 0.89

Sequence: CGACATGTCCCGCTTCTTTCATTAATCCGTTAGCAACTAATTTGCTATATACATTTACCTTTTAAGAGGAGGAAT
- cleaved RNA product abundance [1]: 1.85

Sequence: ACAGACGAAGGAGCCGCAAAGAAGTTATTAAGGGATCAATAATACCTAAATATAAATATCTCTCACTTATTTAAA
- cleaved RNA product abundance [2]: 0.0917

Sequence: ACAGACGAAGGAGCCGCACAGAAGTTATTAAGGGATGAACAATCCCTCAATATAAATATCTCTCACTTATTTAAA
- cleaved RNA product abundance [2]: 0.614

Sequence: CGACATGTCCCGCTTCTTTCATTAATCTGTTAGCAACTGTTCTGCTATATACATTTACCTTTTAAGAGGAGGAAT
- cleaved RNA product abundance [1]: 0.368

Sequence: CGACATGTCCCGCTTCTTTCATTAATCCGTTAGCAACTGTTTTGCTATATTCATATACCTTTTAAGAGGAGGAAT
- cleaved RNA product abundance [1]: 0.449

Sequence: ACAGACGAAGGAGCCGCAAAGAAGTTATTAAGGGATCAATAATCCCTCAATATACATATCTCTCACTTATTTAAA
- cleaved RNA product abundance [2]: 0.736

Sequence: CGACATGTCCCGCTTCTTTCATTAATCCGTTTGCAACTGTTTTGCTATATACAATTACCTTTTAAGAGGAGGAAT
- cleaved RNA product abundance [1]: 0.478

Sequence: ACAGACGAAGGAGCCGCAAAGAAGTTATTAAGGGATGAATAACACCACAATATAAATATCTCTCACTTATTTAAA
- cleaved RNA product abundance [2]: 0.0909

Sequence: ACAGACGAAGGAGCCGCAAAGAAGTTATTAAGGGATGAAAAATCCCTCAATATGAATATCTCTCACTTATTTAAA
- cleaved RNA product abundance [2]: 0.151

Sequence: ACAGACGAAGGAGCCGCAAAGAAGTTATTAAGGGATGACTAATTCCTCAATATAAATATCTCTCACTTATTTAAA
- cleaved RNA product abundance [2]: 0.314

Sequence: ACAGACGAAGGAGCCGCAAAGAAGTTATTAAGGGATTAATAATCCCACAATATAAATATCTCTCACTTATTTAAA
- cleaved RNA product abundance [3]: 0.238
- cleaved RNA product abundance [2]: 0.347
